Columns and labels:
SY10Q8 = target: T1, SY10Q8
T1 chain: SPLKHQEY

FY12Q10 = target: T2, FY12Q10
T2 chain: FPWSSPLKHQEY

CW8Q3 = target: T3, CW8Q3
T3 chain: CDQMMLPW

TGpan = target: T4, TGpan
T4 chain: QG

FE5Q4 = target: T5, FE5Q4
T5 chain: FWIQE

CS9Q4 = target: T6, CS9Q4
T6 chain: CYEQHKLPS

HH12Q11 = target: T7, HH12Q11
T7 chain: HDLMWPDVYSQH

HH12N11 = target: T8, HH12N11
T8 chain: HDLMWPDVYSNH

CF13Q4 = target: T9, CF13Q4
T9 chain: CYEQHKLPSSWPF

GS12Q7 = target: T10, GS12Q7
T10 chain: GGSPLAQSHGGS

DH6N5 = target: T11, DH6N5
T11 chain: DVYSNH

YV10 = target: T12, YV10
T12 chain: YLADTNSLAV

DH6Q5 = target: T13, DH6Q5
T13 chain: DVYSQH

WG10Q7 = target: T14, WG10Q7
T14 chain: WPDVYSQHGG

HG14Q11 = target: T15, HG14Q11
T15 chain: HDLMWPDVYSQHGG

[1] = target: Bovine serum albumin, P02769
[2] = target: BSA-HH12Q11 conjugate, P02769
BSA-HH12Q11 conjugate, P02769, sequence (P02769 25-607): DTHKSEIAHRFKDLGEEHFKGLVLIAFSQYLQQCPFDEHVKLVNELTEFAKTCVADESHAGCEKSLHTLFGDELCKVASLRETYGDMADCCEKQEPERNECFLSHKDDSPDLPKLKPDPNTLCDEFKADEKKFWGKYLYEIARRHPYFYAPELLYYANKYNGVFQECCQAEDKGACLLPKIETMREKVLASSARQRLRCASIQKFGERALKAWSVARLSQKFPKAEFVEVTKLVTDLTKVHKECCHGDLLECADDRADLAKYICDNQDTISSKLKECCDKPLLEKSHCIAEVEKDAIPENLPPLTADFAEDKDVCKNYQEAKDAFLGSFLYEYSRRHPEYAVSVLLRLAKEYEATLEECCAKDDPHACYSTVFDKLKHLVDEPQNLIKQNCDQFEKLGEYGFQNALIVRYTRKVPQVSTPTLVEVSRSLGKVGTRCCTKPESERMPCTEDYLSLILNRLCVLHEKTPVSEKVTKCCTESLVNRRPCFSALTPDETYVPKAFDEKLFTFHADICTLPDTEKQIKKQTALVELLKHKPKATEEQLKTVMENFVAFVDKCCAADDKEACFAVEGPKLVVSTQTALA

Bovine serum albumin, P02769, sequence (P02769 25-607): as above

B1: Recombinant human transglutaminase 2 (hTG2) (protein)
chain: MAEELVLERCDLELETNGRDHHTADLCREKLVVRRGQPFWLTLHFEGRNYEASVDSLTFSVVTGPAPSQEAGTKARFPLRDAVEEGDWTATVVDQQDCTLSLQLTTPANAPIGLYRLSLEASTGYQGSSFVLGHFILLFNAWCPADAVYLDSEEERQEYVLTQQGFIYQGSAKFIKNIPWNFGQFEDGILDICLILLDVNPKFLKNAGRDCSRRSSPVYVGRVVSGMVNCNDDQGVLLGRWDNNYGDGVSPMSWIGSVDILRRWKNHGCQRVKYGQCWVFAAVACTVLRCLGIPTRVVTNYNSAHDQNSNLLIEYFRNEFGEIQGDKSEMIWNFHCWVESWMTRPDLQPGYEGWQALDPTPQEKSEGTYCCGPVPVRAIKEGDLSTKYDAPFVFAEVNADVVDWIQQDDGSVHKSINRSLIVGLKISTKSVGRDEREDITHTYKYPEGSSEEREAFTRANHLNKLAEKEETGMAMRIRVGQSMNMGSDFDVFAHITNNTAEEYVCRLLLCARTVSYNGILGPECGTKYLLNLNLEPFSEKSVPLCILYEKYRDCLTESNLIKVRALLVEPVINSYLLAERDLYLENPEIKIRILGEPKQKRKLVAEVSLQNPLPVALEGCTFTVEGAGLTEEQKTVEIPDPVEAGEEVKVRMDLLPLHMGLHKLVVNFESDKLKAVKGFRNVIIGPA
TG2-mediated incorporation of biotin-cadaverine into plate-coupled peptide (A450) (SY10Q8): none of the other peptides react with the enzyme and cannot be used as substrate for TG2
TG2-mediated incorporation of biotin-cadaverine into plate-coupled peptide (A450) (FY12Q10): none of the other peptides react with the enzyme and cannot be used as substrate for TG2
TG2-mediated incorporation of biotin-cadaverine into plate-coupled peptide (A450) (CW8Q3): none of the other peptides react with the enzyme and cannot be used as substrate for TG2
TG2-mediated incorporation of biotin-cadaverine into plate-coupled peptide (A450) (TGpan): TGpan is good substrate for TG2 confirming its specificity to this enzyme
TG2-mediated incorporation of biotin-cadaverine into plate-coupled peptide (A450) (FE5Q4): none of the other peptides react with the enzyme and cannot be used as substrate for TG2
TG2-mediated incorporation of biotin-cadaverine into plate-coupled peptide (A450) (CS9Q4): none of the other peptides react with the enzyme and cannot be used as substrate for TG2
TG2-mediated incorporation of biotin-cadaverine into plate-coupled peptide (A450) (HH12Q11): HH12Q11 show less reactivity with TG2 than mTG
TG2-mediated incorporation of biotin-cadaverine into plate-coupled peptide (A450) (HH12N11): none of the other peptides react with the enzyme and cannot be used as substrate for TG2
TG2-mediated incorporation of biotin-cadaverine into plate-coupled peptide (A450) (CF13Q4): none of the other peptides react with the enzyme and cannot be used as substrate for TG2
TG2-mediated incorporation of biotin-cadaverine into plate-coupled peptide (A450) (GS12Q7): none of the other peptides react with the enzyme and cannot be used as substrate for TG2
TG2-mediated incorporation of biotin-cadaverine into plate-coupled peptide (A450) (DH6N5): none of the other peptides react with the enzyme and cannot be used as substrate for TG2
TG2-mediated incorporation of biotin-cadaverine into plate-coupled peptide (A450) (YV10): none of the other peptides react with the enzyme and cannot be used as substrate for TG2
TG2-mediated incorporation of biotin-cadaverine into plate-coupled peptide (A450) (DH6Q5): none of the other peptides react with the enzyme and cannot be used as substrate for TG2
TG2-mediated incorporation of biotin-cadaverine into plate-coupled peptide (A450) (WG10Q7): none of the other peptides react with the enzyme and cannot be used as substrate for TG2
TG2-mediated incorporation of biotin-cadaverine into plate-coupled peptide (A450) (HG14Q11): none of the other peptides react with the enzyme and cannot be used as substrate for TG2

B2: Recombinant microbial transglutaminase (mTG) (protein)
chain: DSDDRVTPPAEPLDRMPDPYRPSYGRAETVVNNYIRKWQQVYSHRDGRKQQMTEEQREWLSYGCVGVTWVNSGQYPTNRLAFASFDEDRFKNELKNGRPRSGETRAEFEGRVAKESFDEEKGFQRAREVASVMNRALENAHDESAYLDNLKKELANGNDALRNEDARSPFYSALRNTPSFKERNGGNHDPSRMKAVIYSKHFWSGQDRSSSADKRKYGDPDAFRPAPGTGLVDMSRDRNIPRSPTSPGEGFVNFDYGWFGAQTEADADKTVWTHGNHYHAPNGSLGAMHVYESKFRNWSEGYSDFDRGAYVITFIPKSWNTAPDKVKQGWP
mTG-mediated incorporation of biotin-X-cadaverine into plate-coupled peptide (A450) (SY10Q8): The other peptides listed in table 1 didn't show any reactivity with mTG
mTG-mediated incorporation of biotin-X-cadaverine into plate-coupled peptide (A450) (FY12Q10): The other peptides listed in table 1 didn't show any reactivity with mTG
mTG-mediated incorporation of biotin-X-cadaverine into plate-coupled peptide (A450) (CW8Q3): The other peptides listed in table 1 didn't show any reactivity with mTG
mTG-mediated incorporation of biotin-X-cadaverine into plate-coupled peptide (A450) (TGpan): showed low reactivity to mTG in comparison with the other peptides
mTG-mediated incorporation of biotin-X-cadaverine into plate-coupled peptide (A450) (FE5Q4): found to be good substrate for mTG with better reactivity of the peptides FE5Q4 and HH12Q11
mTG-mediated incorporation of biotin-X-cadaverine into plate-coupled peptide (A450) (CS9Q4): The other peptides listed in table 1 didn't show any reactivity with mTG
mTG-mediated incorporation of biotin-X-cadaverine into plate-coupled peptide (A450) (HH12Q11): found to be good substrate for mTG with better reactivity of the peptides FE5Q4 and HH12Q11
mTG-mediated incorporation of biotin-X-cadaverine into plate-coupled peptide (A450) (HH12N11): no reactivity of the mTG was observed
mTG-mediated incorporation of biotin-X-cadaverine into plate-coupled peptide (A450) (CF13Q4): The other peptides listed in table 1 didn't show any reactivity with mTG
mTG-mediated incorporation of biotin-X-cadaverine into plate-coupled peptide (A450) (GS12Q7): showed low reactivity to mTG in comparison with the other peptides
mTG-mediated incorporation of biotin-X-cadaverine into plate-coupled peptide (A450) (DH6N5): The other peptides listed in table 1 didn't show any reactivity with mTG
mTG incorporation of biot-cad into coated protein (A450) [1]: no reactivity with free BSA
mTG-mediated incorporation of biotin-X-cadaverine into plate-coupled peptide (A450) (DH6Q5): Peptides FE5Q4, HH12Q11 and DH6Q7 were found to be good substrate for mTG
mTG incorporation of biot-cad into coated conjugate (A450) [2]: a good incorporation of biot-cad was obtained with BSA-HH12Q11 conjugate

— patent US20160361434
